Laboratory results as given in patent publication US20260167699A1 (Chugai, published 2026).
Residue numbers refer to the chain shown, from its start. In names and notes the source's numbering stands.

T1: FcγRIIa(R) extracellular domain with C-terminal His tag (human, UniProt P12318 34-217)
T1 construct: extracellular domain; polymorphic form R131; also called FcγRIIa R type
T1 sequence: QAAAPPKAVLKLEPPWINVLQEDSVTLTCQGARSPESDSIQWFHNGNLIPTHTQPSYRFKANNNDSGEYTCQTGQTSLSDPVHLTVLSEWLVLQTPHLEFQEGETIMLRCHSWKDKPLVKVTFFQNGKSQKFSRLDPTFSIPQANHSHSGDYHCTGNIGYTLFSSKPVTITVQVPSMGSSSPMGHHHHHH

T2: FcγRIIa(H) extracellular domain with C-terminal His tag (human, UniProt P12318 34-217)
T2 construct: extracellular domain; polymorphic form H131; also called FcγRIIa H type
T2 sequence: T1 sequence with R134H

T3: FcγRIIb extracellular domain with C-terminal His tag (human, UniProt P31994 43-217)
T3 construct: extracellular domain
T3 sequence: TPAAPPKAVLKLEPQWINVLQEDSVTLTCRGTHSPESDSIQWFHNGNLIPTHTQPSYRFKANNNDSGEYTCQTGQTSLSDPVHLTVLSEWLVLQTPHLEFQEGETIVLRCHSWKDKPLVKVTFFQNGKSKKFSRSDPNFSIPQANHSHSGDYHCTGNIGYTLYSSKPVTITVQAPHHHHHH

T4: FcγRIIb (human, UniProt P31994 43-217)
T4 construct: extracellular domain; also called 2b
T4 sequence: T3 sequence

T5: FcγRIIa(R) (human, UniProt P12318 34-217)
T5 construct: extracellular domain; also called 2aR
T5 sequence: T1 sequence

T6: FcγRIIa(H) (human, UniProt P12318 34-217)
T6 construct: extracellular domain; also called 2aH
T6 sequence: T1 sequence with R134H

B1: H240-Kn033/H240-Hl033/L73-k0 (antibody, human IgG1, kappa)
heavy 1: not shown
heavy 2: not shown
light: DIQMTQSPSSLSASVGDRVTITCRASQDIHKYIAWYQQKPGQAPRLLIQYTSTLQPGVPSRFSGSGSGTDYTFTISSLQPEDIATYYCLQYEQLRTFGGGTKVEIKRTVAAPSVFIFPPSDEQLKSGTASVVCLLNNFYPREAKVQWKVDNALQSGNSQESVTEQDSKDSTYSLSSTLTLSKADYEKHKVYACEVTHQGLSSPVTKSFNRGEC
notes: anti-epiregulin IgG1, knobs-into-holes control; also called H240-Kn033/H240-HI033/L73-k0
B2: H240-Kn061/H240-Hl071/L73-k0 (antibody, human IgG1, kappa)
heavy 1: QDQLVQSGAEVKKPGASVKVSCKASGFNIKDTYIQWVRQAPGQGLEWMGRIDPLRKQTKYREKFEGRVTITADTSTNTAYMELSSLRSEDTAVYYCVRSGREFDYWGQGTLVTVSSASTKGPSVFPLAPSSKSTSGGTAALGCLVKDYFPEPVTVSWNSGALTSGVHTFPAVLQSSGLYSLSSVVTVPSSSLGTQTYICNVNHKPSNTKVDKKVEPKSCDKTHTCPPCPAPEYYWGPSVFLFPPKPKDTLMISRTPEVTCVVVDVSDEDPEVKFNWYVDGVEVHNAKTKPREEQYNATYRVVSVLTVLHQDWLNGKEYKCKVSNKALPAPIEKTISKAKGQPREPQVCTLPPSRDELTKNQVSLWCLVKGFYPSDIAVEWESNGQPENNYKTTPPVLDSDGSFFLYSKLTVDKSRWQQGNVFSCSVMHEALHNHYTQKSLSLSP
heavy 2: QDQLVQSGAEVKKPGASVKVSCKASGFNIKDTYIQWVRQAPGQGLEWMGRIDPLRKQTKYREKFEGRVTITADTSTNTAYMELSSLRSEDTAVYYCVRSGREFDYWGQGTLVTVSSASTKGPSVFPLAPSSKSTSGGTAALGCLVKDYFPEPVTVSWNSGALTSGVHTFPAVLQSSGLYSLSSVVTVPSSSLGTQTYICNVNHKPSNTKVDKKVEPKSCDKTHTCPPCPAPELLGGPSVFLFPPKPKDTLMISRTPEVTCVVVDVSHEDPEVKFNWYVDGVEVHNAKTKPREEQYNSTYRVVSVLTVLHQDWLNGKEYKCKVSNDALPMPIEETISKAKGQPREPQVYTLPPSRCELTKNQVSLSCAVKGFYPSDIAVEWESNGQPENNYKTTPPVLDSDGSFFLVSKLTVDKSRWQQGNVFSCSVMHEALHNHYTQKSLSLSP
light: B1 light
notes: heterodimerized anti-epiregulin IgG1; L234Y/L235Y/G236W/H268D/S298A in Kn061, K326D/A330M/K334E in Hl071; also called H240-Kn061/H240-HI071/L73-k0
B3: H240-Kn032/H240-Hl032/L73-k0 (antibody, human IgG1, kappa)
heavy 1: B2 heavy 1 with Y233L, Y234L, W235G, S238D, D267H, A297S, A329L, I331E
heavy 2: B2 heavy 2 with S238D, D325K, M329L, I331E, E333K
light: B1 light
notes: anti-epiregulin IgG1 called homodimerized: S239D/A330L/I332E in both H chains, knobs-into-holes; also called H240-Kn032/H240-HI032/L73-k0
B4: GpH7-A5/GpH7-B3 variant S324_05P/GpL16-k0 (antibody, human IgG1, kappa)
heavy 1: not shown
heavy 2: not shown
light: DIVMTQSPLSLPVTPGEPASISCQASESLVHSNRNTYLHWYLQKPGQSPQLLIYKVSNRFSGVPDRFSGSGSGTDFTLKISRVEAEDVGVYYCSQNTHVPPTFGQGTKVEIERTVAAPSVFIFPPSDEQLKSGTASVVCLLNNFYPREAKVQWKVDNALQSGNSQESVTEQDSKDSTYSLSSTLTLSKADYEKHKVYACEVTHQGLSSPVTKSFNRGEC
notes: He Ab: heterodimerized IgG1, one H chain mutated
B5: GpH7-A5/GpH7-B3 variant S324_20W/GpL16-k0 (antibody, human IgG1, kappa)
heavy 1: not shown
heavy 2: not shown
light: B4 light
notes: as for B4
B6: H240-Kn125/H240-Hl076/L73-k0 (antibody, human IgG1, kappa)
heavy 1: B2 heavy 1 with Y234Q, S238M, D269E
heavy 2: B2 heavy 2 with D269E
light: B1 light
notes: heterodimerized anti-epiregulin IgG1

Each binder was assayed against T1, FcγRIIa(R) extracellular domain with … (assay: SPR (Biacore), captured antibody, FcγR analyte, 1:1 Langmuir fit).
Protocol: (§1) The antibody of interest was analyzed for its interaction with FcγR using a BiaCore™ T100, BiaCore™ A100, or BiaCore™ 4000 surface plasmon resonance system (GE Healthcare Japan Corp.). The running buffer used was HBS-EP+ (GE Healthcare Japan Corp.). The assay temperature was set to 25° C. The sensor chips used were: a chip prepared by immobilizing antigenic peptides onto Series S Sensor Chip CM5 (GE Healthcare Japan Corp.) by the amine coupling method; a chip prepared by immobilizing antigenic peptides biotinylated in advance onto Series S Sensor Chip SA (certified) (GE Healthcare Japan Corp.) through their interaction; a chip prepared by immobilizing protein L (ACTIGEN, BioVision, Inc.) onto Series S Sensor Chip CM5 (GE Healthcare Japan Corp.); and a chip prepared by immobilizing protein A/G (Thermo Fisher Scientific K.K.) onto Series S Sensor Chip CM5 (GE Healthcare Japan Corp.). The antibody of interest was captured onto any of these chips and allowed to interact with FcγR diluted with a running buffer. The antibody captured on the chip was washed off through the reaction of 10 mM glycine-HCl (pH 1.5) to regenerate the chip, which was repetitively used.

First: B1
Second: B2
The Kd of the first is 2.9-fold higher: 1000 nM for the first, 350 nM for the second.

B3 gave a Kd of 340 nM.

Each binder was assayed against T7, FcγRIIIa(F) extracellular domain with C-terminal His tag (human, UniProt P08637 17-208) in the same assay as above.
T7 construct: extracellular domain; polymorphic form F158; also called FcγRIIIa F type
T7 sequence (P08637 other isoform, or with tags, fused parts or gaps): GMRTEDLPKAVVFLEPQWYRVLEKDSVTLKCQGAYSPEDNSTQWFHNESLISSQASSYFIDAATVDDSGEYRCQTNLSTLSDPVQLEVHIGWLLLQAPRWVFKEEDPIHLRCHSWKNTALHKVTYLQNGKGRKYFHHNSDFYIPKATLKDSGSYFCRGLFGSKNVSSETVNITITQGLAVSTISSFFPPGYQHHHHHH
Protocol: as §1

Compared with B1, B2 is 510-fold lower in Kd: 2600 nM for the first, 5.1 nM for the second. The second binds more tightly here.

B3 showed a Kd of 9.1 nM.

The binders below were run against T2, FcγRIIa(H) extracellular domain with … in the same assay as above.
Protocol: as §1

First: B1
Second: B2
The Kd of the first is 3.3-fold higher: 930 nM for the first, 280 nM for the second. The second binds more tightly here.

For B3, the Kd was 690 nM.

These binders were tested against T3, FcγRIIb extracellular domain with … in the same assay as above.
Protocol: as §1

Going from B1 to B2, the Kd falls from 4100 nM to 1200 nM (3.4-fold).

B3 showed a Kd of 620 nM.

These binders were tested against T8, FcγRIa extracellular domain with C-terminal His tag (human, UniProt P12314 16-292) in the same assay as above.
T8 construct: extracellular domain
T8 sequence (P12314 other isoform, or with tags, fused parts or gaps): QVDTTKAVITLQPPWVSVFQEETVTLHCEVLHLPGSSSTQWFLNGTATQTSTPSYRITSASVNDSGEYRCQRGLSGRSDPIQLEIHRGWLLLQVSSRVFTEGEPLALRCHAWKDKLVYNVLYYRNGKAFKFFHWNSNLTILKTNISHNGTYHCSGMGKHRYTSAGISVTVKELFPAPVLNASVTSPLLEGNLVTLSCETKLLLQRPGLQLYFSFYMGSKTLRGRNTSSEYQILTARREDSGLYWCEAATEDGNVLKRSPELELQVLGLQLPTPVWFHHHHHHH
Protocol: as §1

Compared with B1, B2 is 1.8-fold lower in Kd: 0.25 nM for the first, 0.14 nM for the second. The second binds more tightly here.

With B3 the Kd was 0.073 nM.

What follows are binders tested against T9, FcγRIIIa(V) extracellular domain with C-terminal His tag (human, UniProt P08637 17-208) in the same assay as above.
T9 construct: extracellular domain; polymorphic form V158; also called FcγRIIIa V type
T9 sequence (P08637 other isoform, or with tags, fused parts or gaps): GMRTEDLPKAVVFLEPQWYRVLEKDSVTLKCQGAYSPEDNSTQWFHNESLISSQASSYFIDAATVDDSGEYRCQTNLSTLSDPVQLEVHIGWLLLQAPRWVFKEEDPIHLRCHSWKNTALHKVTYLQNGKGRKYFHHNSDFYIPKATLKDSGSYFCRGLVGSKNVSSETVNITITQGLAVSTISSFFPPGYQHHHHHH
Protocol: as §1

Compared with B1, B2 is 220-fold lower in Kd: 390 nM for the first, 1.8 nM for the second.

For B3, the Kd was 3.1 nM.

What follows are binders tested against T10, FcγRIa (human, UniProt P12314 16-292) (assay: SPR, relative to GpH7-A5/GpH7-B3/GpL16-k0 =100).
T10 construct: extracellular domain; also called 1a
T10 sequence (P12314 other isoform, or with tags, fused parts or gaps): as the sequence (P12314 other isoform, or with tags, fused parts or gaps) above

Compared with B4, B5 is higher in “He/Con 1a” value: 97.8% for the first, 108% for the second.

The binders below were run against T4, FcγRIIb (assay: SPR, relative to GpH7-A5/GpH7-B3/GpL16-k0 =100).

Compared with B4, B5 is higher in “He/Con 2b” value: 106% for the first, 114% for the second.

Each binder was assayed against T5, FcγRIIa(R) (assay: SPR, relative to GpH7-A5/GpH7-B3/GpL16-k0 =100).

Going from B4 to B5, the “He/Con 2aR” value rises from 94.6% to 106%.

What follows are binders tested against T11, FcγRIIIa (human, UniProt P08637 17-208) (assay: SPR, relative to GpH7-A5/GpH7-B3/GpL16-k0 =100).
T11 construct: extracellular domain; also called 3a

Compared with B4, B5 is higher in “He/Con 3a” value: 72.3% for the first, 111% for the second.

What follows are binders tested against T6, FcγRIIa(H) (assay: SPR, relative to GpH7-A5/GpH7-B3/GpL16-k0 =100).

First: B4
Second: B5
The “He/Con 2aH” value of the first is lower: 57.8% for the first, 114% for the second.

Target: T1, FcγRIIa(R) extracellular domain with …
Assay: SPR (Biacore), captured antibody, FcγR analyte, 1:1 Langmuir fit
Remark: another data set of the same source
Protocol: as §1

Going from B1 to B2, the Kd falls from 1000 nM to 350 nM (2.9-fold). The second binds more tightly here.

B3 and B6 are within 1.5-fold of each other in Kd: 340 nM for the first, 380 nM for the second.

Target: T7, FcγRIIIa(F) extracellular domain with …
Assay: as above
Remark: another data set of the same source
Protocol: as §1

Going from B1 to B2, the Kd falls from 2600 nM to 5.1 nM (510-fold).

Going from B3 to B6, the Kd falls from 9.1 nM to 1.2 nM (7.6-fold).

Target: T2, FcγRIIa(H) extracellular domain with …
Assay: as above
Remark: another data set of the same source
Protocol: as §1

Going from B1 to B2, the Kd falls from 930 nM to 280 nM (3.3-fold). The second binds more tightly here.

Going from B3 to B6, the Kd falls from 690 nM to 190 nM (3.6-fold).

Target: T3, FcγRIIb extracellular domain with …
Assay: as above
Remark: another data set of the same source
Protocol: as §1

Going from B1 to B2, the Kd falls from 4100 nM to 1200 nM (3.4-fold).

Compared with B3, B6 is 6.8-fold higher in Kd: 620 nM for the first, 4200 nM for the second.

Target: T8, FcγRIa extracellular domain with …
Assay: as above
Remark: another data set of the same source
Protocol: as §1

Compared with B1, B2 is 1.8-fold lower in Kd: 0.25 nM for the first, 0.14 nM for the second.

Compared with B3, B6 is 3.3-fold higher in Kd: 0.073 nM for the first, 0.24 nM for the second.

Target: T9, FcγRIIIa(V) extracellular domain with …
Assay: as above
Remark: another data set of the same source
Protocol: as §1

Compared with B1, B2 is 220-fold lower in Kd: 390 nM for the first, 1.8 nM for the second.

Going from B3 to B6, the Kd falls from 3.1 nM to 0.37 nM (8.4-fold). The second binds more tightly here.
